Laboratory results published in patent US20240317847A1 (Bayer, published 2024).
Positions count from the first letter of the chain named.

T1: murine IL-11 (mouse, UniProt P47873 22-199)
T1 construct: Invigate recombinant protein; biotinylated when immobilized in the Di-complex ELISA; also called mIL11; mIL-11
T1 sequence: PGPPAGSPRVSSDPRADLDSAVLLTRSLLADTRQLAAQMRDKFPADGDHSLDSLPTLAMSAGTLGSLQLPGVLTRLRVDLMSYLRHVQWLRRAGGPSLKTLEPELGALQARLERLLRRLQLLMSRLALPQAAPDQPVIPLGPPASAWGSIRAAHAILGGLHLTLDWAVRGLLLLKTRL

T2: human IL-11 (human, UniProt P20809 22-199)
T2 construct: Invigate recombinant protein; biotinylated when immobilized in the Di-complex ELISA; also called hIL11; hIL-11
T2 sequence: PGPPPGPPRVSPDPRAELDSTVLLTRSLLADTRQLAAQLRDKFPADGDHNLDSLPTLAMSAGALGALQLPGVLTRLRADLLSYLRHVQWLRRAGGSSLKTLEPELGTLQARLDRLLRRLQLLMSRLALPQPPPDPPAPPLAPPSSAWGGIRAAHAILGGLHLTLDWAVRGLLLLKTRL

T3: cynomolgus IL-11 (cynomolgus, UniProt P20808 22-199)
T3 construct: Invigate recombinant protein; also called cIL11; Macaca IL-11
T3 sequence: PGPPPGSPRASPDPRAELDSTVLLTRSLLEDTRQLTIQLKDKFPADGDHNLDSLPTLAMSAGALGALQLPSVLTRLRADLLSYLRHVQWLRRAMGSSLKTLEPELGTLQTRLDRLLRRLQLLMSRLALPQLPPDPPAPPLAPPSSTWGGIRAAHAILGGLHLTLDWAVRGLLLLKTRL

T4: rat IL-11 (rat, UniProt Q99MF5 22-199)
T4 construct: Invigate recombinant protein; also called rIL11
T4 sequence: T1 sequence with S50N, L84F, G94A, V137A, I138V

B1: TPP-29528 (antibody, mouse IgG1)
heavy: EVQLLESGGGLVQPGGSLRLSCAASGFTFSSYGMHWVRQAPGKGLEWVAVISYDGSYKYYADSVKGRFTISRDNSKNTLYLQMNSLRAEDTAVYYCAAGVPDYWGQGTLVTVSSAKTTPPSVYPLAPGSAAQTNSMVTLGCLVKGYFPEPVTVTWNSGSLSSGVHTFPAVLQSDLYTLSSSVTVPSSTWPSETVTCNVAHPASSTKVDKKIVPRDCGCKPCICTVPEVSSVFIFPPKPKDVLTITLTPKVTCVVVDISKDDPEVQFSWFVDDVEVHTAQTQPREEQFNSTFRSVSELPIMHQDWLNGKEFKCRVNSAAFPAPIEKTISKTKGRPKAPQVYTIPPPKEQMAKDKVSLTCMITDFFPEDITVEWQWNGQPAENYKNTQPIMDTDGSYFVYSKLNVQKSNWEAGNTFTCSVLHEGLHNHHTEKSLSHSPGK
light: QSVLTQPPSASGTPGQRVTISCSGSSSNIGSDYDVHWYQQLPGTAPKLLIYSNEERPSGVPDRFSGSKSGTSASLAISGLRSEDEADYYCSAWDSSLSGPVFGGGTKLTVLGQPKSSPSVTLFPPSSEELETNKATLVCTITDFYPGVVTVDWKVDGTPVTQGMETTQPSKQSNNKYMASSYLTLTARAWERHSSYSCQVTHEGHTVEKSLSRADCS
notes: mIgG1, Lambda
B2: TPP-29519 (antibody, mouse IgG1)
heavy: QVQLVESGGGVVQPGRSLRLSCAASGFTFSHYDMHWVRQAPGKGLEWVAVISYHGSVKFYADSVKGRFTISRDNSKNTLYLQMNSLRAEDTAVYYCARTPGFHFDYWGQGTLVTVSSAKTTPPSVYPLAPGSAAQTNSMVTLGCLVKGYFPEPVTVTWNSGSLSSGVHTFPAVLQSDLYTLSSSVTVPSSTWPSETVTCNVAHPASSTKVDKKIVPRDCGCKPCICTVPEVSSVFIFPPKPKDVLTITLTPKVTCVVVDISKDDPEVQFSWFVDDVEVHTAQTQPREEQFNSTFRSVSELPIMHQDWLNGKEFKCRVNSAAFPAPIEKTISKTKGRPKAPQVYTIPPPKEQMAKDKVSLTCMITDFFPEDITVEWQWNGQPAENYKNTQPIMDTDGSYFVYSKLNVQKSNWEAGNTFTCSVLHEGLHNHHTEKSLSHSPGK
light: QSVLTQPPSASGTPGQRVTISCSGSSSNIGSNYVSWYQQLPGTAPKLLIYYDDLRPSGVPDRFSGSKSGTSASLAISGLRSEDEADYYCSAWDDSLSGVVFGGGTKLTVLGQPKSSPSVTLFPPSSEELETNKATLVCTITDFYPGVVTVDWKVDGTPVTQGMETTQPSKQSNNKYMASSYLTLTARAWERHSSYSCQVTHEGHTVEKSLSRADCS
notes: mIgG1, Lambda
B3: TPP-29603 (bispecific antibody, IgG1)
chain 1: QVQLVESGGGVVQPGRSLRLSCAASGFTFSHYDMHWVRQAPGKGLEWVAVISYHGSVKFYADSVKGRFTISRDNSKNTLYLQMNSLRAEDTAVYYCARTPGFHFDYWGQGTLVTVSSGGGGSGGGGSGGGGSQSVLTQPPSASGTPGQRVTISCSGSSSNIGSNYVSWYQQLPGTAPKLLIYYDDLRPSGVPDRFSGSKSGTSASLAISGLRSEDEADYYCSAWDDSLSGVVFGGGTKLTVLGGGGSGGGGSGGGGSGVECPPCPAPPVAGPSVFIFPPKPKDVLTITLTPKVTCVVVDISKDDPEVQFSWFVDDVEVHTAQTQPREEQFNSTFRSVSELPIMHQDWLNGKEFKCRVNSAAFPAPIEKTISKTKGRPKAPQVYTIPPCKEQMAKDKVSLWCMITDFFPEDITVEWQWNGQPAENYKNTQPIMDTDGSYFVYSKLNVQKSNWEAGNTFTCSVLHEGLHNHHTEKSLSHSPGK
chain 2: EVQLLESGGGLVQPGGSLRLSCAASGFTFSSYGMHWVRQAPGKGLEWVAVISYDGSYKYYADSVKGRFTISRDNSKNTLYLQMNSLRAEDTAVYYCAAGVPDYWGQGTLVTVSSGGGGSGGGGSGGGGSQSVLTQPPSASGTPGQRVTISCSGSSSNIGSDYDVHWYQQLPGTAPKLLIYSNEERPSGVPDRFSGSKSGTSASLAISGLRSEDEADYYCSAWDSSLSGPVFGGGTKLTVLGGGGSGGGGSGGGGSGVECPPCPAPPVAGPSVFIFPPKPKDVLTITLTPKVTCVVVDISKDDPEVQFSWFVDDVEVHTAQTQPREEQFNSTFRSVSELPIMHQDWLNGKEFKCRVNSAAFPAPIEKTISKTKGRPKAPQVCTIPPPKEQMAKDKVSLSCAITDFFPEDITVEWQWNGQPAENYKNTQPIMDTDGSYFVVSKLNVQKSNWEAGNTFTCSVLHEGLHNHHTEKSLSHSPGK
notes: scFv-kih-mIgG1; bispecific comprising CDRs of TPP-29528 and TPP-29519
B4: TPP-29697 (bispecific antibody, IgG1)
chain 1: QVQLVESGGGVVQPGRSLRLSCAASGFTFSHYDMHWVRQAPGKGLEWVAVISYHGSVKFYADSVKGRFTISRDNSKNTLYLQMNSLRAEDTAVYYCARTPGFHFDYWGQGTLVTVSSGGGGSGGGGSGGGGSQSVLTQPPSASGTPGQRVTISCSGSSSNIGSNYVSWYQQLPGTAPKLLIYYDDLRPSGVPDRFSGSKSGTSASLAISGLRSEDEADYYCSAWDDSLSGVVFGGGTKLTVLGGGGSGGGGSGGGGSGVECPPCPAPPVAGPSVFLFPPKPKDTLMISRTPEVTCVVVGVSHEDPEVKFNWYVDGVEVHNAKTKPREEQYNSTYRVVSVLTVLHQDWLNGKEYKCKVSNKQLPSPIEKTISKAKGQPREPQVYTLPPCRDELTKNQVSLWCLVKGFYPSDIAVEWESNGQPENNYKTTPPVLDSDGSFFLYSKLTVDKSRWQQGNVFSCSVMHEALHNHYTQKSLSLSPGK
chain 2: EVQLLESGGGLVQPGGSLRLSCAASGFTFSSYGMHWVRQAPGKGLEWVAVISYDGSYKYYADSVKGRFTISRDNSKNTLYLQMNSLRAEDTAVYYCAAGVPDYWGQGTLVTVSSGGGGSGGGGSGGGGSQSVLTQPPSASGTPGQRVTISCSGSSSNIGSDYDVHWYQQLPGTAPKLLIYSNEERPSGVPDRFSGSKSGTSASLAISGLRSEDEADYYCSAWDSSLSGPVFGGGTKLTVLGGGGSGGGGSGGGGSGVECPPCPAPPVAGPSVFLFPPKPKDTLMISRTPEVTCVVVGVSHEDPEVKFNWYVDGVEVHNAKTKPREEQYNSTYRVVSVLTVLHQDWLNGKEYKCKVSNKQLPSPIEKTISKAKGQPREPQVCTLPPSRDELTKNQVSLSCAVKGFYPSDIAVEWESNGQPENNYKTTPPVLDSDGSFFLVSKLTVDKSRWQQGNVFSCSVMHEALHNHYTQKSLSLSPGK
notes: scFv-kih-hIgG1 with Fc-silencing mutations; bispecific comprising CDRs of TPP-29528 and TPP-29519

Target: T1, murine IL-11
Test: Tri-complex ELISA, mIL-11 + mIL-11Ra-Fc + mgp130-Fc, inhibition of complex formation

| Binder | Efficacy (%) | IC50 [nM] |
| --- | --- | --- |
| B1 | 94.7 | 0.6 |
| B2 | 81.3 | 0.14 |

Target: T2, human IL-11
Test: SPR (Biacore), 37 C, antibody captured via anti-Fc, IL-11 as analyte
Procedure: (§1) To assess the binding kinetics and affinity of anti-IL-11 bispecific antibodies as well as their species cross-reactivity profile, binding assays were conducted using surface plasmon resonance (SPR). […] Antibodies were captured either via anti-human Fc IgGs (“Human antibody capture kit”, Order No. BR100839, Cytiva) or via anti-mouse Fc IgGs (“Mouse antibody capture kit, Order No. BR100383, Cytiva) covalently amine coupled to a Series S CM5 sensor chip (Cytiva) depending on the isotype. The amine coupling was carried out according to the manufacturer's instructions using 1-ethyl-3-(3-dimethylaminopropyl) carbodiimide hydrochloride (EDC), N-hydroxysuccinimide (NHS) and ethanolamine HCl, pH 8.5 (“Amine Coupling Kit” BR-1000-50, Cytiva.). Human, mouse, cynomolgus or rat IL-11 was used as analyte at several dilutions within the concentration range from 0.05-200 nM. For binding assays with only one concentration 200 nM IL-11 was used. The sensor surface was regenerated with glycine pH 1.7 after each antigen injection. Obtained sensorgrams were double referenced (subtraction of reference flow cell signal and buffer injection) and were fitted to a 1:1 Langmuir binding model to derive kinetic data using the Biacore T200 Evaluation software or the Biacore Insight software.
(§2) If no value is reported, there was either no binding or very low binding and multiphasic binding behavior.

| Binder | Kd [nM] |
| --- | --- |
| B3 | 0.0019 |
| B4 | < 0.001 |
| B1 | 0.34 |
| B2 | 0.01 |

Target: T3, cynomolgus IL-11
Test: as above
Procedure: as §1, §2

| Binder | Kd [nM] |
| --- | --- |
| B3 | 0.0022 |
| B4 | < 0.001 |
| B1 | 0.2 |
| B2 | 0.61 |

Target: T1, murine IL-11
Test: as above
Procedure: as §1, §2

| Binder | Kd [nM] |
| --- | --- |
| B3 | 0.0017 |
| B4 | < 0.001 |
| B1 | 0.23 |
| B2 | 0.0035 |

Target: T4, rat IL-11
Test: as above
Procedure: as §1, §2

| Binder | Kd [nM] |
| --- | --- |
| B3 | 0.0034 |
| B4 | < 0.001 |
| B1 | 0.33 |
| B2 | 0.023 |

Target: T2, human IL-11
Test: cell-based or functional assay

| Binder | Efficacy (%), Stat3 reporter gene assay [%] | IC50, Stat3 reporter gene assay [nM] |
| --- | --- | --- |
| B3 | 101 | 4.1 |
| B4 | 99.1 | 2 |
| B1 | 81.2 |  |
| B2 | 100 | 1.8 |

Target: T3, cynomolgus IL-11
Test: cell-based or functional assay

| Binder | Efficacy (%), Stat3 reporter gene assay [%] | IC50, Stat3 reporter gene assay [nM] |
| --- | --- | --- |
| B3 | 101 | 1.7 |
| B4 | 100 | 0.75 |
| B1 | 87.8 | 0.44 |
| B2 | 99.2 | 0.89 |

Target: T1, murine IL-11
Test: cell-based or functional assay

| Binder | Efficacy (%), Stat3 reporter gene assay [%] | IC50, Stat3 reporter gene assay [nM] |
| --- | --- | --- |
| B3 | 102 | 2 |
| B4 | 99.6 | 1.4 |
| B1 | 96.9 | 0.89 |
| B2 | 101 | 1.2 |

Target: T4, rat IL-11
Test: cell-based or functional assay

| Binder | Efficacy (%), Stat3 reporter gene assay [%] | IC50, Stat3 reporter gene assay [nM] |
| --- | --- | --- |
| B3 | 99.9 | 2 |
| B4 | 97.6 | ~1.2 |
| B1 | 89.9 | 1.8 |
| B2 | 99.7 | 1 |
